Test results as given in US20160053242A1, “THERMOSTABLE NUCLEASE” (priority 2013, published 2016).

Experiments:
[1] = Active two-dimensional gel electrophoresis (isoelectric point); type: physicochemical; settings: partially purified crude extracts of CCRI-10035 heated at 80° C. for 1 h; 2D gel
Protocol: Protein concentration was measured by the method of Bradford. An 18 cm Immobiline™ pH 4-7 DryStrip was applied. Proteins (200 μg) were diluted in T8 buffer (7 M Urea, 3% W/V CHAPS; 3-[(3-cholamidopropyl)dimethylammonio]-1-propanesulfonate, 20 mM DTT; dithiothreitol, 5 mM TCEP; tris(2-carboxyethyl)phosphine hydrochloride) and precipitated with 2-D clean-up kit (Amersham Biosciences) to remove substances interfering with isoelectric focusing (IEF) such as detergents, salts, lipids, phenolic and nucleic acids. IEF was carried out using IPTGhor IEF system (Amersham Biosciences) for the first dimension as recommended by the manufacturer. After first dimension, the strip was cut 5 cm from (+) terminal and 7 cm from (−) terminal. The cut strip was linked with agarose onto 12% SDS-PAGE containing 20 μg/ml dsDNA calf thymus DNA (Calbiochem). Markers and proteins were prepared according to the manufacturer's instructions on Whatman paper and run alongside the cut strip. After electrophoresis, the gel was rinsed with water, and placed into the gel incubation buffer (20 mM Tris-HCl, pH 9.08, 20 mM MgCl2). Two hours later, the gel was rinsed again and incubated in the gel incubation buffer overnight at 37° C. […] Trypsin fragmentation results were analyzed using Mascot software (Matrix Science) for peptide identification. […]

[2] = tested on: plasmid DNA pET-24a(+) (closed circular double stranded); assay: Assay of nuclease activity, substrate specificity: plasmid DNA; settings: no metal ion added
Protocol: (§1) Standard (20 μl) reaction mixture contained 2 μg of calf thymus dsDNA in activity buffer (20 mM Tris-HCl, 20 mM MgCl2 at pH 7.24). When required, several concentrations of alternative divalent cations, BaCl2, CaCl2, NaCl, MnSO4, NiSO4, MgCl2, CoCl2, KCl, were tested and the effects of other compounds (0.1, 0.25, 0.5 and 1 mg/ml BSA, 0.05, 0.1, 0.5 and 1 mM dNTPs, 2, 5, 10, 20, 50, 100 mM EDTA, 5, 15, 30, 50% glycerol, 0.1, 0.25, 0.5 and 1% SDS, and 1, 2, 3, 4, 5, 6, 7 and 8 M urea) were investigated. […] In all cases, the reaction was started by the addition of 2 μl of nickel column purified enzyme, and terminated by adding 4 μl of agarose gel loading buffer (0.1 M EDTA, pH 8.0, 0.05% bromophenol blue, 50% glycerol). Nuclease activity was evaluated by assessing DNA degradation level on gel electrophoresis (1.2% agarose, with 0.25 μg/ml of ethidium bromide, at 170 V for 30 min, in Tris-borate EDTA buffer).

calf thymus dsDNA = assay: Assay of nuclease activity, DNA degradation level on agarose gel
Protocol: as §1

calf thymus ssDNA = assay: Assay of nuclease activity, substrate specificity: ssDNA; settings: no metal ion added
Protocol: as §1

[3] = digestion of calf thymus dsDNA at 37° C.

B1: Nucyep: thermostable non-specific nuclease from Yersinia enterocolitica subsp. palearctica; 283-amino-acid protein, SEQ ID NO. 6 (protein)
chain: MKFNLIKLLPVLLLTACTTTDHSMSAPKTILSAPTVTEQNLPAAAIDNCLVGCPTGGSDQTVIRDVYTLNNNSHTKFANWVAYKVTKSSQASNHPRKWAQDPDLPDSDTLAPADYTGANQKLAVDRGHQAPLSLLAGNEDSQALNYLSNITPQKAALNQGAWVRLEDQERNLANRPDVTAVYSVTGPLFERHIATLPAKPTVEIPSGYWKIIFIGTSPDKGQYAAFLMDQNTAKSANFCDYQVNVDTIEAKTNPQLTIWSNLPADVAQIIKSQKGTLAQTIGCD
modifications: Yersinia enterocolitica sub. paleartica
For B1, the “Isoelectric point of the spot with heat-stable nuclease activity” value [1] was “about 5.2”, the “Nuclease activity on plasmid (circular ds) DNA without addition of metal ions” value [2] was “but not the circular dsDNA or RNA” and the “Effect of 2 mM Ca2+ on nuclease activity” value (calf thymus dsDNA; 2 mM Ca2+) was “inhibited”. For the same molecule, the “Effect of 2 mM CuSO4 on nuclease activity” value (calf thymus dsDNA; 2 mM CuSO4) was “inhibited”, the “Effect of 2 mM ZnCl2 on nuclease activity” value (calf thymus dsDNA; 2 mM ZnCl2) was “inhibited” and the “Effect of 0.1% SDS on nuclease activity” value (calf thymus dsDNA; 0.1% SDS) was “inhibited”. For the same molecule, the “Effect of 100 mM EDTA on nuclease activity” value (calf thymus dsDNA; EDTA 100 mM) was “inhibited”, the “Activity left after heating at 80° C. for 60 minutes (1 h)” value (calf thymus dsDNA; [3]) was about 5% and the “Activity left after heating at 100° C. for 20 minutes” value (calf thymus dsDNA; [3]) was about 5%. For the same molecule, the Optimum temperature (calf thymus dsDNA; examined within 0 to 100° C.) was “about 35 °C”, the “Activity after exposure to longer times at 100° C.” value (calf thymus dsDNA; longer than 20 minutes at 100° C., compared to undigested controls) was “no remaining nuclease activity” and the “Nuclease activity on dsDNA without addition of metal ions” value (calf thymus dsDNA; no metal ion added, linear dsDNA) was “able to degrade”. For the same molecule, the “Nuclease activity on ssDNA without addition of metal ions” value (calf thymus ssDNA) was “able to degrade”.
